Experimental findings from PMC3917506 are described below.

Holding throughout (assay): FRET or BRET
For orientation: Bioluminescence resonance energy transfer reports proximity on the nanometre scale.

Assay [1] has as its target Venus-IQGAP1 (human) (UniProt P46940).
The target of assay [2] is mCherry-actin (UniProt P60709).
The target of assay [3] is mCherry-actin (UniProt P60709). The source holds these as a separate data set.
Assay [4] concerns the target mCherry-actin (UniProt P60709). The source holds these as a separate data set.

Like-named read-outs stand apart in the source and are kept apart here.

Sequence of Venus-IQGAP1 (P46940 whole entry): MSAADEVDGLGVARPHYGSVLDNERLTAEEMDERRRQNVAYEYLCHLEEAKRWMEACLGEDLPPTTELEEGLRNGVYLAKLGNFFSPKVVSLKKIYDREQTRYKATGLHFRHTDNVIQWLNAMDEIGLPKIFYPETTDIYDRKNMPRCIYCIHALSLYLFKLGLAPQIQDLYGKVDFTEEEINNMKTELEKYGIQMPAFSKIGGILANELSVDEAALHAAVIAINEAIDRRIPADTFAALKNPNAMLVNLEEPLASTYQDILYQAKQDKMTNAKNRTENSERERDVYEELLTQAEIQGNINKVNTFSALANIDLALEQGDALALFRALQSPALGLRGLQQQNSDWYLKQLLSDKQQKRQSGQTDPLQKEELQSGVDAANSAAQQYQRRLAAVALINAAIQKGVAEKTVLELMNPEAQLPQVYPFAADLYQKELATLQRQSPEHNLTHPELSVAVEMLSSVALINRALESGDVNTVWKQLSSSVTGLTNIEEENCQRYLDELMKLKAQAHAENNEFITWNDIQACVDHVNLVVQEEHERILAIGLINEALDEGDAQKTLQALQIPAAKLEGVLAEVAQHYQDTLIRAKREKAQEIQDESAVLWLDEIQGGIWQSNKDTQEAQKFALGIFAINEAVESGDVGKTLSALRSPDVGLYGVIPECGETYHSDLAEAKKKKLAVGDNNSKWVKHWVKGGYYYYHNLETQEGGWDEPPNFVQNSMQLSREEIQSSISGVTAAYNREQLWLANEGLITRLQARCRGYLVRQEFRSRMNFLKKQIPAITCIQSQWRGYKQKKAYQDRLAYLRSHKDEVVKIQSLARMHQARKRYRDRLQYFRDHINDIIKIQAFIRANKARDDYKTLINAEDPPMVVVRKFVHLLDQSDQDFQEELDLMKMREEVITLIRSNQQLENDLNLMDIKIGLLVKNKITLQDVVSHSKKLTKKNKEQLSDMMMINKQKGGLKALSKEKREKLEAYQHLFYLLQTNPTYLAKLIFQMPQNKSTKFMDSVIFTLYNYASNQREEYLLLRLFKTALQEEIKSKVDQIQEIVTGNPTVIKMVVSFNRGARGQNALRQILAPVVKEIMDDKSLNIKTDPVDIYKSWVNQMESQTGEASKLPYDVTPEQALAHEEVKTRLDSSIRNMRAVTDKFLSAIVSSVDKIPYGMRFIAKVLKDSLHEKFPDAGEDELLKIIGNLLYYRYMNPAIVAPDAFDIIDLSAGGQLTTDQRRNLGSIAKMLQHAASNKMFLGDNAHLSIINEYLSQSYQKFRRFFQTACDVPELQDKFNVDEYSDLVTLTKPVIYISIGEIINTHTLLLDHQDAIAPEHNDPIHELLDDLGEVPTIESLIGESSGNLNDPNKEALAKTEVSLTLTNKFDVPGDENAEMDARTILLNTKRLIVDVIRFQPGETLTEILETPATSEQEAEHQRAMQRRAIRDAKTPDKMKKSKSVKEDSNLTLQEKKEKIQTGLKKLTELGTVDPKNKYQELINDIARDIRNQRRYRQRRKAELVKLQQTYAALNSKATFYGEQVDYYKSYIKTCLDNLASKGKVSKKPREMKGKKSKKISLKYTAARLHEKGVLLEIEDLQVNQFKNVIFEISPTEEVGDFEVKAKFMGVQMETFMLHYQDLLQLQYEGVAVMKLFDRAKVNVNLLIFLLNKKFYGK
Sequence of CFP-Cdc42, P60953 1-191 (natural protein; other documents disagree on this pair) (P60953 whole entry): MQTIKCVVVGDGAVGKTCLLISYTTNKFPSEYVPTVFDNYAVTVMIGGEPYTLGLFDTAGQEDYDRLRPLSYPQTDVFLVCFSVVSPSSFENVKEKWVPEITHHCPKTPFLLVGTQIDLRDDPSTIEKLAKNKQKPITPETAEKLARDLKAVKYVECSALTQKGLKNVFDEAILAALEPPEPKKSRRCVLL
Sequence of Venus-IQGAP1 (human) (P46940 whole entry): as the sequence (P46940 whole entry) above

For the substance “CFP-Cdc42, P60953 1-191 (natural protein; other documents disagree on this pair)”, in assay [1], the FRET efficiency E% at low D:A ratios (regression line) came to 25% and the average FRET efficiency E% came out at 20%.

With “Venus-IQGAP1 (from UniProt P46940 1-1657) (natural protein)”, the average FRET efficiency E% in assay [2] is 26%; in assay [3] it was 31%. In addition, the FRET efficiency E% at low D:A ratios (regression line) in assay [3] and in assay [4] was 25 to 35% in each case.
